Test results: patent publication US20230357364A1 (INTERNATIONAL AIDS VACCINE INITIATIVE, published 2023)
Changes are numbered by the printed parent chain.

B1: L6.P4A3.1 (antibody, V domains shown)
VH: QVQLVQSGAEVKKPGSSVKVSCKASGGIFSSSAISWVRQAPGQGLEWMGGIIPILDISNYAQKFQGRVTITADKSTSTAFMELSSLRSEDTAVYYCALTNQWDLLVYWGQGTLVTVSS
VL: EIVLTQSPGTLSLSPGERATLSCRASQRVSSSYLAWYQQKPGQAPRLLIYGAESRATGIPDRFSGSGSGTDFTLTISRLEPEDFAVYYCQHYGSSLWTFGQGTKLEIK
B2: L6.P4A3.9 (antibody, V domains shown)
VH: B1 VH with A24S, I28T, I34Y, G50T, S58T, L98Q, T99R, L105I
VL: B1 VL with R28W, L34I, L96S
B3: L6.P4A3.3 (antibody, V domains shown)
VH: B1 VH with S25P, I28T, S58T, N59H, T99R
VL: B1 VL with R28D, L96E
B4: L6.P4A3.5 (antibody, V domains shown)
VH: B1 VH with S25V, I28T, S35Y, S58A, T99R, L105V
VL: B1 VL with R24H, R28S, L96T
B5: L6.P4A3.7 (antibody, V domains shown)
VH: B1 VH with I57Y, S58T, T99R
VL: B1 VL with R28E, L96A
B6: L6.P4A3.8 (antibody, V domains shown)
VH: B1 VH with A24V, I28T, G50K, S58T, T99R
VL: B1 VL with R28S, S32H, L96P
B7: L6.P4A3.12 (antibody, V domains shown)
VH: B1 VH with I28L, S58T
VL: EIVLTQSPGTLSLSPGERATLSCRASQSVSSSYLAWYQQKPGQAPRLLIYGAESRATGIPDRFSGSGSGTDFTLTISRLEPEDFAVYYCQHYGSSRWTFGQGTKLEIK
B8: L6.P4A3.b (antibody, V domains shown)
VH: B1 VH with S25P, I28T, S58T, N59T, T99R, V106I
VL: B1 VL with R28S, S32H, E53S, A56Y, L96H
B9: L6.P4A3.2 (antibody, V domains shown)
VH: B1 VH with S25P, I28T, G50T, S58T, L98Q, T99R
VL: B1 VL with R28S, S31A, L96R

target: human insulin (human, UniProt P01308 25-54; P01308 90-110); assay: polyreactivity ELISA
Sequence (P01308 25-54 limits assumed, chain 1 of 2): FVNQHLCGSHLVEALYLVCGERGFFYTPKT
Sequence (P01308 90-110 limits assumed, chain 2 of 2): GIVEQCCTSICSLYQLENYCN

Binder | binding result
B1 | no binding
B2 | no binding
B3 | no binding
B4 | no binding
B5 | no binding
B6 | no binding
B7 | no binding
B8 | no binding
B9 | no binding
